The target of this test is T1, human CD2 on the surface of cells (MOLT-4 human T lymphoblast cells); primary human T-cells; primary human NK … (human, UniProt P06729 25-351).
T1 sequence: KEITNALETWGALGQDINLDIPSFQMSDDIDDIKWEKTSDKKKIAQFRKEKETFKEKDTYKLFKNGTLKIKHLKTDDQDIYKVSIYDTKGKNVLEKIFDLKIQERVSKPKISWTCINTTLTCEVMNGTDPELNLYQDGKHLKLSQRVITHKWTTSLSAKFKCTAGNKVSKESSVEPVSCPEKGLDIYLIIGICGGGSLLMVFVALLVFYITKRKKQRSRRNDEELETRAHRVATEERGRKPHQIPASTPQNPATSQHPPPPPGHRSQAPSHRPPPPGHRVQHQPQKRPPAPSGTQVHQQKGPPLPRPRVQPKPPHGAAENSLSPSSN
Put plainly: cell-based or functional assay.

B1: anti-CD2-amanitin ADC: RPA 2.10 conjugated to amanitin with a cleavable linker, interchain, average drug-to-antibody ratio of 6 (other)
heavy: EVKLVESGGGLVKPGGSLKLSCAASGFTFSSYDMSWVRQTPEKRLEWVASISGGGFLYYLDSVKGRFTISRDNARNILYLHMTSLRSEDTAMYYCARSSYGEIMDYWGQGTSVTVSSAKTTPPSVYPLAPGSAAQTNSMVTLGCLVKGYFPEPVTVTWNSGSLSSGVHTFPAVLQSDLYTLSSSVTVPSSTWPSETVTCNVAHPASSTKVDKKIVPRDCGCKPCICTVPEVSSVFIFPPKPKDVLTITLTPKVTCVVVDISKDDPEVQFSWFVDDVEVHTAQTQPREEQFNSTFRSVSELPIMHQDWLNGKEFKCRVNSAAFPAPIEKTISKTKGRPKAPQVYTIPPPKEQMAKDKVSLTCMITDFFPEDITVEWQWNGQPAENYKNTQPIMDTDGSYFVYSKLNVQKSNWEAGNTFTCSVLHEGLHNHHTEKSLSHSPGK
light: DILLTQSPAILSVSPGERVSFSCRASQRIGTSIHWYQQRTTGSPRLLIKYASESISGIPSRFSGSGSGTDFTLSINSVESEDVADYYCQQSHGWPFTFGGGTKLEIERADAAPTVSIFPPSSEQLTSGGASVVCFLNNFYPKDINVKWKIDGSERQNGVLNSWTDQDSKDSTYSMSSTLTLTKDEYERHNSYTCEATHKTSTSPIVKSFNRNEC
Take B1: the “viability of primary human NK cells after 4 days (CellTiter-Glo), in vitro NK-cell killing assay, IC50” value is 5.2 pM.

These data come from patent US20210260212A1 (MAGENTA THERAPEUTICS, published 2021).
